# Results published in the DeepSol protein solubility set.
# Assay: soluble on expression in E. coli; label from the status in PepcDB or PDB records
row,Sequence,soluble on expression in E. coli
1,MSLNKTFTVEKANRFIAENKHLVNTQYKPEEHFSAEIGWINDPNGFVYFRGEYHLFYQFYPYDSVWGPMHWGHAKSKDLVTWEHLPVALAPDQDYDRNGCFSGSAIVKDDRLWLMYTGHIEEKTGVRQVQNMAFSDDGIHFEKISQNPVATGSDLPDELIAADFRDPKLFEKDGRYYSVVAAKHKNNVGCIVLLGSDNLVEWQFESIFLKGVEHQGFMWECPDYFELDGKDCLIMSPMRYQREGDSYHNINSSLLFTGKVDWGEKCFIPESVQEIDHGQDFYAPQTLLDDQNRRILIAWMQTWGRTLPTHDQEHKWACAMTLPRILRLEDGKLRQFPVKKGQYQIQIDKDCHYHLGNDTDYLEFGYDSNVQQVYIDRSHLIQKILGEEEQDTSRRYVDIEAKELEVVLDKNSIEIFVNQGEASLTATYYLTVPAELSRIDEGHHHHHH,soluble
2,MGSDKIHHHHHHSDIATSVTQGGEQRLADGGYFELGASVYGTNQLDIRQTEHESIQPSLLISGMYQYKGLFAEMVHQSQDGINFGINLWSSNNWSLDLLAVNYQGSAGRSENTELSQLDEDGRNAYLMETDSIFIGAGFRVTRYWDDHYVFQYRIVSDYFDDQGISTTARLGKSWQVRNWNFHALASIEYASTKLSRNLFGVESMEATELFPEYRPSSAVTYGMELGVAYPLSEKLVFRTVYRLNVLSKEITASPFNQADYGSFFNASFSYVF,not soluble
3,MAHHHHHHMAMKDAVWLGKPVDVTGEDLCSVYTSRIGGTATLFRETADYSVFRCPKCNSMNTVSLLAQIYAPLDVYDRLLYVLTCSTCSTEQSTFCFALRSQNFNPSYKNVSQTNDKGGCEDKRLLFEESADWGDGMDKGWDYDYKSVKSNTATEQRGNRSTVNEAIADDICSTEVPSSLAPPGSQPPIRGMRFPCFTLEVFEEPPKVKPKSAPFNIQLHEAQGKYGEDVVETTVLDEADEPLHEKLLRKYVERIGRVPSQCVRWGPSREPLQLSVISIVAPRCPYCGKKRRYELQLTSPIIYFLTKSNEKKHPLHFGNVLVFTCSGNCNTEAYALEYCFVEGEI,not soluble
4,MSLAGTIAIKNGYVFDPLNEINGEKMDIFIRDGKVVKELSASEMKTSRVIDASGMTVMPGGVDSHSHVAGAKVNAGRSMRPEDHYKANLKKTPLTHSGSGYTVPSVYKQGYDYAAMGYTTVFEAAVPPLEARHTHEEMRATPLLDMGGYLVLGNNFFLMRYLRDGDMEKAAAYVAWMMKTHKTYGIKCVNPAGVENWAWGKNVSTLDETNIHFEITPREVIKGLTEVNETLGMPMPVHLHANNLGHPGCYAITKDSLKIPDGVKTKQNMAVEWAETKMDLSRDRSVYLTHLMFNSFAGTTWGDCESGVKDIADYINNKDHVVIDSGCTPFGEATVMTGDGPAIHDLYTLTGNKWSNTDVEMECGSGVLPFTYLKSNPVHSLQWAMGLECLLLIKDPWKTIMTTDSPNGGPFTKYPEVMTWIMSEAFRKQTFSECHKWANDRSELGGINRELSLYDLAILTRANPAKTIGMAHRKGSLGVGADGDVTVYNINPQQLDANNYEALLRTFRKAEYTVKGGEIVAVKGEIVSLPEKRTYYSEVHVENEREKEMLVDVKEWFRYYTLGFANYSTPEKYLANPTPIQVNSEGHHHHHH,not soluble
5,MGSDKIHHHHHHMNRGMKNYLSQTNYRDAMKAADIMNSNVIYATLPSTRDKVLELFKKYEISAVPVLKNSELVGIVTRKDILRKIEENQLALLMTPNPTTVDADADVKEVVKILTSTPFRRLPVVKDGKLVGIITVRDIIKKIAEMNIEKPVKSYITPYIVCVWEETPLNVVGEIMRLSNSEFVGILNDNDELVGVIDEKIMLTETLIEDFIEQTAYSSSSDTDDSWSWDSVRDYTVKYFEVSVVKLPKEPVKNFMKKPEFVYPQTSVSKCAKRMVRSDLDYIPVLDSENRLIGTVRDKDLIRVLLEV,not soluble
6,MNAQEFKEKKTETTGAHHAQRLGIAAGMTVQEVGWDEDCDSTISEAIEDILGEELLDEETDEACDVVLLWWRSDDGDLVDGLVDSIRPLADNGRIWLLTPGAGKQGALDPGEISESAQLAGLVQTKAERLGAWQGSCLVQRGNKQ,not soluble
7,QDVGQKSIFSITPEFDEVRSISNVGSNGDISSHGNTIYFTRHTLNSPQDIFSIDNHGDDLTQLTHINKDKLGDVKFADYQQFNFKGWNDETVHGYWLKPANFEAGKKYPIAFLVHGGPQGSFGNMFHYRWNAQLWAAQGYGVVMVDFHGSTGYGQEFTHSISRDWGGKPLEDLQKGLDFIVKEQPWLDGDNACALGASYGGYMMNWIAGNWPTRFKCLINHAGLYDMPSFYQSTEELWFPEYDMGGPSWGKENGSAKGKVSPDYTKFNPSAYVNNWQTPMLVIQGELDYRVPYAQSLGAFTTLQRKGIDSRLVMFPDEDHHIRKPDNLVVWYDEVFKWLEKYTK,not soluble
8,KVGISMFNILQSTQLSSNTFDFWLEAPRIATHAQAGQFVILRIDEKGERIPLTIAETNPQAGSIRIIFQVIGKTTAALSQLKTSDSLLDITGPLGMPTEVKQYGTVMVVGGGVGIAAIYPIIKALKEAGNRVITILGARTAELVLLQEECRRYSDELIITTDDGSLGKKGLVTEAMEEVIARESVACSWAIGPSIMMKFCTLTAEKHQLPIYVSLNPIMIDGTGMCGGCRVTVDGTMKFACVDGPEFKGNEVNWDEFINRMKQYQEEEAVCFTDRLKEQVEKNG,not soluble
9,MSEDGLKVSVLASGSTGNVTYIETPERKVLVDAGLSGKKIAGLMDSVGRDISEVDSLFVTHEHSDHIQSVGVLARKYGIDIYANQGTWDAIGGKIGKVPTEQKFIFDPNTTKSLDDLDIESFSVSHDAAEPQFYEFHHAGKSFVILTDTGYVSDRIAGTIRNADGYLFEVNHDTEMLRMGGYPWPLKQRIMGDHGHLSNEDGANALMDVIGNRTKKIYLGHLSLHNNMKELAHLTVTSMMQNHDLAVGHDFEILDTDHKIADPLTLILEHHHHHH,soluble
10,MAKEGSVAPKERINVTFKPATGGNQEEIELPLKLLAIGDYTHRRDERKVEDRKPISIDKTTFDEVLAKQELELTLSVPNRLQDEEGVAEELPVKLRVNSMKDFNPASLVEQVPELKKLMELRDALVALKGPLGNAPAFRKAIEGVLADDESRGRVLGELGLKAPAPDA,not soluble
11,MGSSHHHHHHGGTGENLYFQGGSGMKGVTSFTVYGLVPAADFQRCAEAAAYVNDKYPESYAVIVKLELPRDFAERRAAWASAGHLPSQQQQPTDASFGESGGSATTASTAAAELAAVLVEQHGSDSEPQCLLTAETFLHNIATHTDYKPDATEDYYTARGKRAWRAFLASRGRQYCWMDVSVDGVAVGRVWFELYASVAPLTCKNFCELCRGTTVAMGDTVAHSSVFDPPPAQHIGYKGTTFFRTLKDAWVMGGDVTGAHSGNGGYSCYGRCFPDETYAVPHDAAGILGMCNDGPHTSSSAFYITLRPMSWMNGKYVAFGRVMDGMHVVDAIHAVEARHNQAPKASIVITDCDVLDTSV,soluble
12,EMIHHAKNQLIMCSPYFIPDESMLEAVTSACYRGVRVELLVSEQADQFVVDHAQSSYYQTLLEAGVHIYRYHAPAVLHSKFLIADPHGVAVSVMGSSNMDMRSFGLNYEVSLMTLQGQLTHLLYELAETYKENSTELTLEEWNQRGIVRRYVDNIMKLTSALQ,not soluble
13,MGSDKIHHHHHHMKPTLFVLAAGMGSRYGSLKQLDGIGPGGDTIMDYSVYDAIRAGFGRLVFVIRHSFEKEFREKILTKYEGRIPVELVFQELDRLPEGFSCPEGREKPWGTNHAVLMGRDAIREPFAVINADDFYGRNGFEVLARKLMTLEGKQGEYCMVGYRVGNTLSESGGVSRGVCQVDEKHLLTGVVERTGIERTDGTISFRDETGKICTLAEDAPVSMNMWGFTPDYFDYSEELFINFLNAHGQEPKSEFFIPFVVNDLIRSGRASVEVLDTTARWFGVTYSDDRPGVVAKLRELTEAGEYPTKLF,not soluble
14,MEGWQRAFVLHSRPWSETSLMLDVFTEESGRVRLVAKGARSKRSNLKGALQPFTPLLLRYSGRGEVKTLRSAEAVSLALPLSGITLYSGLYINELLSRVLEYETRFSELFFDYLNCIQALAGTTGSPEPALRRFELALLGHLGYGVNFTHCAGSGERVDDTMTYRYREEKGFFASVVIDNNTFTGRHLKALEAREFPDVDTLRAAKRFTRMALKPYLGGKPLKSRELFRQFMPKRTVKTKKD,not soluble
15,DSVIVVDNVPQVGPDRLEKLKNVIHKIFSKFGKITNDFYPEEDGKTKGYIFLEYASPAHAVDAVKNADGYKLDKQHTFRVN,soluble
16,MDVNPTLLFLKVPAQNAISTTFPYTGDPPYSHGTGTGYTMDTVNRTHQYSEKGRWTTNTETGAPQLNPIDGPLPEDNEPSG,soluble
17,MGFLPDSWHFYIETLLVALLAYVVMRNRSKRQQEKLSKKLTERQKDELIADWTPEPLVPETPQDHPVLNPKYADGKMTKDVSIDGEKYLNMASTNFLSFIGVKRIEDRAKQTIFKYGVGSCGPRGFYGTVDVHLDLEKELAKFMGCEEAVLYSYGFATVSSAIPAYAKKGDVIFVDEGVNFAIQKGLQASRSRVEYFKHNDMEHLERLLLEQEQRDKKDPKKAKSVRRFIVVEGLYVNYADLCPLPKIIEFKWRFKVRVFIDESWSFGVIGKTGRGVTEHFNVPMEDVDMVMASLENALASTGGFCVGRSYVVGHQRLSGLGYCFSASLPPLLATAASEAISIIDEEPSRVQKVTEMAINGQKKLQDALSGSKFSLQGCPESPMKHIYYNGEDEEKQLDTFVETVFTKNHLLLTRARYLDKDELFKIRPSIRVMFQHDLTEEEIQRAVDAIRVVAHKF,not soluble
18,MGSDKIHHHHHHMDVDLGKLFFCGFNDFNEEVKEIIRKYRPTGILIYPGVLSKEYLLMDFMSFLSKEGDFLISSDHEGGQLEVLKYVPSSPGNLAFGKNSPDVTYRYSRVAGKIMEIVGLNMVFAPVLDLLSEESSSVIDIRSYGSDPKIVAEHGARACEGYLEGGVIPCIKHFPGHGKAREDSHLTLPVVDAPFEKLWEEDLLPFRKVLEREKKVTVMTAHVRYSSIDSLPATLSEKIITDVLREKIGFDGLVISDAMEMSAVSNNFSVEEIVSLFLNAGGNMILLGDYRNLPVYYETLVKLLEDGKVQKDKVERSIRTVEKYLAFAKKNSGVGFLADVSMKAVEFLGFEKIDHTSEVTLLVPSSENLSQADTTGGDYDQIPEIVSRFFEVENVVRYTVEDGPEFVEGDLIFDFVADIPNEKALKAHLSLPAEKTVYFVLRNPFDVRYFEGRKIVVTRSTKPISIYKSLEHFLGRCDS,not soluble
19,MNLKQISAIIIVKNAKQTLLECLNSLKDFDEIILLNNESSDNTLNIANEFKKDFANLHIYHSAFIGFGALKNLALSYAKNDWILSIDADEVLENECIKELKNLELQEDNIIALSRKNLYKGEWIKACGWWPDYVWRIFNKNFTRFNDNLVHESLVLPSNAKKIYLKNGLRHYAFRDISHLIDKMQYYSSLWAKQNIHKKSGVLKANLRAFWTFFRNYFLKNGFLYGYKGFIISVCNALGTFFKYMKLYELQKQKPKTCALIITTYNQKERLKLVLDSVKNLAFLPNEVLIADDGSKEDTARLIEEYQKDFPCPLKHIWQEDEGFRAAKSRNNAIKASKSEYIILIDGDMILEKDFVKNHLEFAKRKVILQGSRVILNKNESEEILKNNNYSLAFNKKGFKNQRSIFLAKCVYKFSKLTKKFFKKSQLVKGSKTCNMSFYKSDFEAIEGFNEKFIGWGREDSEFVARFLFNDGVFKRLKFNALAYHIYHEENSKNMLEINHQIYLETIKNEKTTWRLEHHHHHH,not soluble
20,MLKKFFLPDEFVKNIFHITPEKLKERNVKGIITDLDNTLVEWDRPNATPRLIEWFEEMKEHGIKVTIVSNNNERRVKLFSEPLGIPFIYKARKPMGKAFNRAVRNMELKKEDCVVIGDQLLTDVLGGNRNGYHTILVVPVASSDGFITRFNRQVERRILSALKRKGHIQWEELEHHHHHH,soluble
21,MIQAVFERAEDGELRSAEITGHAESGEYGLDVVCASVSTLAINFINSIEKFAGYEPILELNEDEGGYLMVEIPKDLPSHQREMTQLFFESFFLGMANLSENYSEFVQTRVITEN,soluble
